Series [1] is classed as physicochemical. As to the method: 25× volumes of lysis buffer 25 mM HEPES, 20 mM imidazole, 400 mM sodium chloride, 0.5 mM EDTA, 5% glycerol, 0.01% Tween 20, pH 7.5 were added to E. coli pellets harvested from 25 mL TB culture, and sonicated 5× on ice at 40% output using a probe sonicator. Once lysed, whole cell extracts were clarified at 10K*g and 100 uL of supernatant were aliquoted and subjected to incubations at 50° C., 60° C., 70° C., and 80° C. for 15 minutes, followed by a ten-minute incubation on ice. Thermally precipitated proteins were removed at 10K*g for five minutes, and soluble extract fractions were combined directly with Laemmli sample buffer, denatured, and run on 4-20% SDS-PAGE to evaluate yield and stability.

Series [2] deals with T1, Human VEGF 165 (human, UniProt P15692-4 27-191).
T1 construct: Loaded on the BLI probe as the ligand; also called BLI ligand Human VEGF 165 (Avi tag, R&D Systems AVI-293-050); not shown: Avi tag
Briefly: BLI; KD after 4 days at 37 °C against KD at t = 0. Background: In BLI a coated tip is dipped into the sample, and binding shifts an interference pattern.
Target sequence in this assay (P15692 other isoform, or with tags, fused parts or gaps limits assumed): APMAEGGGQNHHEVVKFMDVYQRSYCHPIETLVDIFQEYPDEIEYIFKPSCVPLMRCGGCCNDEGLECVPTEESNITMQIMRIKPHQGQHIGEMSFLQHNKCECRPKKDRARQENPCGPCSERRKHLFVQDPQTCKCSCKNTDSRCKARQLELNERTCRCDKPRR

The target of series [3] is T1, Human VEGF 165. Briefly: BLI, VEGF 165 on probe, conjugate as analyte, t = 0; value is the limit of detection.
Target sequence in this assay (P15692 other isoform, or with tags, fused parts or gaps limits assumed): as above
Series [4] has as its target T1, Human VEGF 165. As to the kind of experiment: BLI, VEGF 165 on probe; sample aged 4 days at 37 °C.
Series [5] deals with T1, Human VEGF 165. Briefly: BLI; KD after 11 days at 37 °C against KD at t = 0.
The target in series [6] is T1, Human VEGF 165. As to the kind of experiment: BLI, VEGF 165 on probe; sample aged 11 days at 37 °C.
Series [7] concerns the target T1, Human VEGF 165. Briefly: BLI, VEGF 165 on probe, t = 0 (repeats Table 15); limit of detection.
Target sequence in this assay (P15692 other isoform, or with tags, fused parts or gaps limits assumed): as above
For series [8], the target named is T1, Human VEGF 165. As to the kind of experiment: BLI, VEGF 165 on probe; sample aged 32 days at 37 °C.
Target sequence in this assay (P15692 other isoform, or with tags, fused parts or gaps limits assumed): as above
The target in series [9] is T1, Human VEGF 165. Briefly: BLI; KD after 32 days at 37 °C against KD at t = 0.
Target sequence in this assay (P15692 other isoform, or with tags, fused parts or gaps limits assumed): as above
For series [10], the target named is T1, Human VEGF 165. As to the kind of experiment: BLI, VEGF 165 on probe; sample aged 11 days at 37 °C; limit of detection; aged 11 days at 37 C (sample 1).
Target sequence in this assay (P15692 other isoform, or with tags, fused parts or gaps limits assumed): as above
Series [11] deals with T1, Human VEGF 165. Briefly: BLI, VEGF 165 on probe, t = 0 (repeats Table 15); limit of detection; t = 0, fresh conjugate, not aged.
The target in series [12] is T1, Human VEGF 165. Briefly: BLI; KD after 28 days at 37 °C against KD at t = 0.
Series [13] deals with T1, Human VEGF 165. As to the kind of experiment: BLI; KD after 14 days at 37 °C against KD at t = 0.
For series [14], the target named is T1, Human VEGF 165. As to the kind of experiment: BLI, VEGF 165 on probe; sample aged 14 days at 37 °C; limit of detection.
The target of series [15] is T1, Human VEGF 165. Briefly: BLI, VEGF 165 on probe; sample aged 28 days at 37 °C.
The target of series [16] is T1, Human VEGF 165. Briefly: BLI, VEGF 165 on probe; sample aged 3 days at 37 °C; aged 3 days at 37 C (sample 1).
Series [17] concerns the target T1, Human VEGF 165. As to the kind of experiment: BLI, VEGF 165 on probe, conjugate as analyte, t = 0; t = 0, fresh conjugate, not aged.
The target of series [18] is T1, Human VEGF 165. Briefly: BLI; KD after 3 days at 37 °C against KD at t = 0; fold change of KD, 3 days at 37 C against t = 0.
Series [19] has as its target T1, Human VEGF 165. Briefly: BLI, VEGF 165 on probe; sample aged 3 days at 37 °C.
Series [20] deals with T1, Human VEGF 165. Briefly: BLI, VEGF 165 on probe, conjugate as analyte, t = 0.
Series [21] deals with T1, Human VEGF 165. Briefly: BLI, VEGF 165 on probe; sample aged 5 days at 37 °C.
Series [22] has as its target T1, Human VEGF 165. Briefly: BLI, VEGF 165 on probe, t = 0 (repeats Table 15).
In series [23] the target is T1, Human VEGF 165. Briefly: BLI; KD after 5 days at 37 °C against KD at t = 0.
The target in series [24] is T1, Human VEGF 165. As to the kind of experiment: BLI; KD after 3 days at 37 °C against KD at t = 0.

Broadly, the Kd is the constant that tells how readily two partners part at equilibrium. Read a low Kd as a tighter complex.

A value given as a limit tells only on which side of the number the result lay.

B1: aTNFaMu_3MUT: anti-TNFα single domain antibody (mouse), aTNFaMu with three point mutations, SEQ ID NO: 72 (protein)
VHH: QVQLQESGGGLVQAGGSLRLSCAASGGTFSSIIMAWFRQAPGKEREFVGAVSWSGGTTVYADSVKGRFTISRDSARKSVYLQMNSLKPEDTAVYYCAARPYQKYNWASASYNVWGQGTQVTVSS
modifications: aTNF-a mu 3MUT
On to B1, for which the “thermal stability of the protein in E. coli cell extracts” value in series [1] was “about 70 °C”.

B2: Conjugate 16 (anti-VEGF VHH SEQ ID NO: 91 with aH linker SEQ ID NO: 21 on hyaluronic acid, intermediate 2-6) (VHH)
VHH: DVQLVESGGGLVQPGGSLRLSCAASGRTFSSYSMGWFRQAPGKEREFVVAISKGGYKYDAVSLEGRFTISRDNAKNTVYLQINSLRPEDTAVYYCASSRAYGSSRLRLADTYEYWGQGTLVTVSS
modifications: C-terminal Cys of the peptide linker bound by its thiol to the maleimide of the organic linker MP2H on hyaluronic acid (830 kDa)
notes: Multivalent peptide-hyaluronic acid conjugate (MVP); peptide valency 101; Method 2 intermediate; also called BI VHH anti-VEGF MVP
For the molecule B2, the “Change in KD to t = 0” value with Human VEGF 165 [2] turned out to be 654 fold; in the series with Human VEGF 165 [5], 648 fold. Besides, the dissociation constant (Kd) is under 1 pM in the series with Human VEGF 165 [3], 0.654 nM with Human VEGF 165 [4], 0.648 nM with Human VEGF 165 [6] and under 1 pM in the series with Human VEGF 165 [7].

B3: Conjugate 1 (anti-VEGF DARPin SEQ ID NO: 92 on hyaluronic acid, intermediate 5-4) (designed binder)
chain: GSDLDKKLLEAARAGQDDEVRILMANGADVNARDSTGWTPLHLAAPWGHPEIVEVLLKNGADVNAADFQGWTPLHLAAAVGHLEIVEVLLKYGADVNAQDKFGKTAFDISIDNGNEDLAEILQKAAGGGSGGGS
modifications: peptide bound through the organic linker MP2H to hyaluronic acid (830 kDa); site of attachment not stated
notes: Multivalent peptide-hyaluronic acid conjugate (MVP); peptide valency 68; Method 5 intermediate (high EDC, N-acylurea adducts); also called DARPin MVP (Method 5)
B3: the dissociation constant Kd with Human VEGF 165 [8] was 0.075 nM; with Human VEGF 165 [3] it was under 1 pM; with Human VEGF 165 [10], under 1 pM; in the series with Human VEGF 165 [11] it was under 1 pM. For the same molecule, the “Change in KD to t = 0” value with Human VEGF 165 [9] amounted to 75 fold; with Human VEGF 165 [5], 1 fold.

B4: Conjugate 2 (anti-VEGF DARPin SEQ ID NO: 92 on hyaluronic acid, intermediate 1-7) (designed binder)
chain: GSDLDKKLLEAARAGQDDEVRILMANGADVNARDSTGWTPLHLAAPWGHPEIVEVLLKNGADVNAADFQGWTPLHLAAAVGHLEIVEVLLKYGADVNAQDKFGKTAFDISIDNGNEDLAEILQKAAGGGSGGGS
modifications: peptide bound through the organic linker MP2H to hyaluronic acid (830 kDa); site of attachment not stated
notes: Multivalent peptide-hyaluronic acid conjugate (MVP); peptide valency 117; Method 1 intermediate; also called DARPin MVP (Method 1)
Turning to B4, the Kd with Human VEGF 165 [3] was under 1 pM; with Human VEGF 165 [14], under 1 pM; with Human VEGF 165 [7], under 1 pM; in the series with Human VEGF 165 [15], 0.017 nM. The “Change in KD to t = 0” value was 17 fold in the series with Human VEGF 165 [12] and 1 fold with Human VEGF 165 [13].

B5: Conjugate 8 (anti-VEGF E1-1 SEQ ID NO: 81 with aH linker SEQ ID NO: 21 on hyaluronic acid, intermediate 5-7) (VHH)
VHH: EVQLQASGGGFVQPGGSLRLSCAASGGGSDAGTMGWFRQAPGKEREFVSAISWAGTAWRYYADSVKGRFTISRDNSKNTVYLQMNSLRAEDTATYYCALGSYEMDHHYWGQGTQVTVSS
modifications: C-terminal Cys of the peptide linker bound by its thiol to the maleimide of the organic linker MP2H on hyaluronic acid (830 kDa)
notes: Multivalent peptide-hyaluronic acid conjugate (MVP); peptide valency 94; Method 5 intermediate; also called anti-VEGF E1-1 MVP (Method 5)
Consider B5, for which the equilibrium dissociation constant (Kd) turned out to be 0.557 nM in the series with Human VEGF 165 [16] and 0.184 nM in the series with Human VEGF 165 [17]. Besides, the “Change in KD to t = 0” value with Human VEGF 165 [18] is 3 fold.

B6: Conjugate 11 (anti-VEGF E1-1 SEQ ID NO: 81 with aH linker SEQ ID NO: 21 on hyaluronic acid, intermediate 5-2) (VHH)
VHH: EVQLQASGGGFVQPGGSLRLSCAASGGGSDAGTMGWFRQAPGKEREFVSAISWAGTAWRYYADSVKGRFTISRDNSKNTVYLQMNSLRAEDTATYYCALGSYEMDHHYWGQGTQVTVSS
modifications: C-terminal Cys of the peptide linker bound by its thiol to the maleimide of the organic linker MP2H on hyaluronic acid (830 kDa)
notes: Multivalent peptide-hyaluronic acid conjugate (MVP); peptide valency 47; Method 5 intermediate
With B6, the Kd stood at 6.75 nM with Human VEGF 165 [19], 1.04 nM in the series with Human VEGF 165 [20], 21.9 nM with Human VEGF 165 [21] and 1.04 nM with Human VEGF 165 [22]. Besides, the “Change in KD to t = 0” value amounted to 21 fold with Human VEGF 165 [23] and 7 fold with Human VEGF 165 [24].
